In US20220213456 one finds activity (1-depletion score) data, which are given here for four sequences.

Assay in all cases: cleavage_in_vitro
For series [1], the system named is T1, OMNI-52 (Butyrivibrio sp. NC3005).
T1 sequence: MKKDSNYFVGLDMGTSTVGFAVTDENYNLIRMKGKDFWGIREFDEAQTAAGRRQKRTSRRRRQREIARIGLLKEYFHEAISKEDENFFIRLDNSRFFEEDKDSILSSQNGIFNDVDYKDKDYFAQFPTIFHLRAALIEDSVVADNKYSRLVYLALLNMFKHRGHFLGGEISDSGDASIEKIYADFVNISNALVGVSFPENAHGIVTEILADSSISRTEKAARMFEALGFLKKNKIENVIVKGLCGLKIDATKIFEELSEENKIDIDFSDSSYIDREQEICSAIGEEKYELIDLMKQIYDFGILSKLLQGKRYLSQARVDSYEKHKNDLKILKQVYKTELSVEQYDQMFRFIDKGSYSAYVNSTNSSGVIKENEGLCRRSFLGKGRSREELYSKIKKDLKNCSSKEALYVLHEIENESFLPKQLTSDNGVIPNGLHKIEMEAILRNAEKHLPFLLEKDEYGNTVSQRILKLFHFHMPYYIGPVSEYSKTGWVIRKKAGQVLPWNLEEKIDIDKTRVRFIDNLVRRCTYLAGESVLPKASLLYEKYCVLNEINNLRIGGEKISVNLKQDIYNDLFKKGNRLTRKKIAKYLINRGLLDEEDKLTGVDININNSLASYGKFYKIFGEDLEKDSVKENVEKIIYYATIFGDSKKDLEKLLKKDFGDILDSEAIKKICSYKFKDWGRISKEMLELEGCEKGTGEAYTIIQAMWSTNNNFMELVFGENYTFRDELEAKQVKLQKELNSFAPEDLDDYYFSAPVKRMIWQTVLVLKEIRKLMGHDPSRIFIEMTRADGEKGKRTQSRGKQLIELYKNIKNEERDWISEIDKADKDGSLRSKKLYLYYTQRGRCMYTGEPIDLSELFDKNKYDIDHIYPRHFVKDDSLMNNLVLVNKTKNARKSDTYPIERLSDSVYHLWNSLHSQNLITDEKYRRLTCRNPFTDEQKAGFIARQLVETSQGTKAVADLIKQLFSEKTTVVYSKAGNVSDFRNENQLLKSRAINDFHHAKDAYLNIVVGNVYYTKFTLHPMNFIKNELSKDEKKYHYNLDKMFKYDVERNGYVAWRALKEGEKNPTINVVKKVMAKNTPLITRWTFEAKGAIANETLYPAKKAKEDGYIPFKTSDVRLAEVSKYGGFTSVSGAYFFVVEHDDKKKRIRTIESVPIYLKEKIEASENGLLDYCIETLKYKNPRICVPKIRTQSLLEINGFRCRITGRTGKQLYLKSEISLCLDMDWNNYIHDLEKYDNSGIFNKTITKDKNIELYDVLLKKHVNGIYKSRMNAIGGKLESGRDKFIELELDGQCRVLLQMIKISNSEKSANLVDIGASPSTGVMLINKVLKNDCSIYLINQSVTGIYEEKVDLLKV
Particulars: TXTL; PAM NRRADT.

Series [2] relates to T2, OMNI-35 (Bartonella apis).
T2 sequence: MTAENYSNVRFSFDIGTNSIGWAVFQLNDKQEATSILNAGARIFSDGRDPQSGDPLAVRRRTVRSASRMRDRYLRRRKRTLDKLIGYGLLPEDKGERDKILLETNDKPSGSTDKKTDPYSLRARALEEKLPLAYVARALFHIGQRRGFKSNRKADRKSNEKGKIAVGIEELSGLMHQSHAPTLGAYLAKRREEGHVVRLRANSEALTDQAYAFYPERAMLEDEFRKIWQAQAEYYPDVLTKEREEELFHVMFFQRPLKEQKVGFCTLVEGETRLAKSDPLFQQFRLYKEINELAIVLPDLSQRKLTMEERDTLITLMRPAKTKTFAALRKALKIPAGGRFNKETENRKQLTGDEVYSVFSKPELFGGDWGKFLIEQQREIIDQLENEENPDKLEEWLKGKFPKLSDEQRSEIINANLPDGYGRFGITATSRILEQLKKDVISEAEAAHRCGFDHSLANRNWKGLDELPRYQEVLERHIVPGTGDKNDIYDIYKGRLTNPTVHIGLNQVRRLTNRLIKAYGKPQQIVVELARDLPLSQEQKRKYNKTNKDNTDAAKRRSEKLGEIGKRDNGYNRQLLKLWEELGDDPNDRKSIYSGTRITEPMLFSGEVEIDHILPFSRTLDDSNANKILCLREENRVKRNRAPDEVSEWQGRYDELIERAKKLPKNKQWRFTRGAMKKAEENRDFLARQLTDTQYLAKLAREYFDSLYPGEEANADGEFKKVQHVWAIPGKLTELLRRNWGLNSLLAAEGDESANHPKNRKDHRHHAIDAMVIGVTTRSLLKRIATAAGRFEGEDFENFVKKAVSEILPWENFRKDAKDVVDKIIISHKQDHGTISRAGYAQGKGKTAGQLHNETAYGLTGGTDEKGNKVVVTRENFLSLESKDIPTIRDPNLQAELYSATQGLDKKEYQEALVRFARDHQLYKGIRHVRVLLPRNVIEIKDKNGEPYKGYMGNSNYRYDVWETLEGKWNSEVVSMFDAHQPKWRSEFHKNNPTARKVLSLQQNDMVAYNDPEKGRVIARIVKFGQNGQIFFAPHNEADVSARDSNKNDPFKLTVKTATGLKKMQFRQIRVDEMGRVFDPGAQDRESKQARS
Conditions: TXTL; PAM NRR; V1, V2 tested.

For series [3], the system named is T3, OMNI-34 (Alistipes sp. An54).
T3 sequence: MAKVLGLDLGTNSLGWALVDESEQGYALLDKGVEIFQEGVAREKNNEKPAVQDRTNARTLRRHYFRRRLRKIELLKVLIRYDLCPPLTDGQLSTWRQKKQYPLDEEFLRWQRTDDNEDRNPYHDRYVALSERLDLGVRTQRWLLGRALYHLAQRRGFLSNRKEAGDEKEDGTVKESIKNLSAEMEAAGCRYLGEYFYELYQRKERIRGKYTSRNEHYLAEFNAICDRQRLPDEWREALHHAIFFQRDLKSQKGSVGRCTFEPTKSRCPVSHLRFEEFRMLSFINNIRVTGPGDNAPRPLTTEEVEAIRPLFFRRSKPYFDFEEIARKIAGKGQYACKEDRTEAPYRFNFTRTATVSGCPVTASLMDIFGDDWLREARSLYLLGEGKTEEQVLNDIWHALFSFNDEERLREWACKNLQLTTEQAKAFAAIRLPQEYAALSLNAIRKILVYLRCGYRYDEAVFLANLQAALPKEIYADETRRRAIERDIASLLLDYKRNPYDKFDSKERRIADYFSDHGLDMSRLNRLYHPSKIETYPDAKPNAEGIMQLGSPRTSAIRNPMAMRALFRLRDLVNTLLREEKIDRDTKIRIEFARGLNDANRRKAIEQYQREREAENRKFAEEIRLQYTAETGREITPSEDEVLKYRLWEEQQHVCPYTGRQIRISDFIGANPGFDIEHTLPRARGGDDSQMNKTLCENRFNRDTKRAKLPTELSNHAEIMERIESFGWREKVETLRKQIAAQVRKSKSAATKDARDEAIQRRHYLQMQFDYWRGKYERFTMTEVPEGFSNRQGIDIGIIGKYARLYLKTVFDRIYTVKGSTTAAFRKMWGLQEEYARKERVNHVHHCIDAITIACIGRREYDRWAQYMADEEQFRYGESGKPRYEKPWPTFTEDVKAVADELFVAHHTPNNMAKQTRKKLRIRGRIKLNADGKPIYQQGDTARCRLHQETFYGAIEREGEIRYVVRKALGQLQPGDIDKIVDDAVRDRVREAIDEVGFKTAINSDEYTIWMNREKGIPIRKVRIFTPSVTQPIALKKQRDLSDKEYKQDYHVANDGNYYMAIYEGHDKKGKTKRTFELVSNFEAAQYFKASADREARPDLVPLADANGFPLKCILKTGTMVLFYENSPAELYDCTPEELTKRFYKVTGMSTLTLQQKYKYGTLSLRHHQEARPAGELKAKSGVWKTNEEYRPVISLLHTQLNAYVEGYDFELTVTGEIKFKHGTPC
Particulars: TXTL; PAM NRNNNNAA; sgRNA V1-V3 tested.

For series [4], the system named is T4, OMNI-51 (Bacteroides coagulans).
T4 sequence: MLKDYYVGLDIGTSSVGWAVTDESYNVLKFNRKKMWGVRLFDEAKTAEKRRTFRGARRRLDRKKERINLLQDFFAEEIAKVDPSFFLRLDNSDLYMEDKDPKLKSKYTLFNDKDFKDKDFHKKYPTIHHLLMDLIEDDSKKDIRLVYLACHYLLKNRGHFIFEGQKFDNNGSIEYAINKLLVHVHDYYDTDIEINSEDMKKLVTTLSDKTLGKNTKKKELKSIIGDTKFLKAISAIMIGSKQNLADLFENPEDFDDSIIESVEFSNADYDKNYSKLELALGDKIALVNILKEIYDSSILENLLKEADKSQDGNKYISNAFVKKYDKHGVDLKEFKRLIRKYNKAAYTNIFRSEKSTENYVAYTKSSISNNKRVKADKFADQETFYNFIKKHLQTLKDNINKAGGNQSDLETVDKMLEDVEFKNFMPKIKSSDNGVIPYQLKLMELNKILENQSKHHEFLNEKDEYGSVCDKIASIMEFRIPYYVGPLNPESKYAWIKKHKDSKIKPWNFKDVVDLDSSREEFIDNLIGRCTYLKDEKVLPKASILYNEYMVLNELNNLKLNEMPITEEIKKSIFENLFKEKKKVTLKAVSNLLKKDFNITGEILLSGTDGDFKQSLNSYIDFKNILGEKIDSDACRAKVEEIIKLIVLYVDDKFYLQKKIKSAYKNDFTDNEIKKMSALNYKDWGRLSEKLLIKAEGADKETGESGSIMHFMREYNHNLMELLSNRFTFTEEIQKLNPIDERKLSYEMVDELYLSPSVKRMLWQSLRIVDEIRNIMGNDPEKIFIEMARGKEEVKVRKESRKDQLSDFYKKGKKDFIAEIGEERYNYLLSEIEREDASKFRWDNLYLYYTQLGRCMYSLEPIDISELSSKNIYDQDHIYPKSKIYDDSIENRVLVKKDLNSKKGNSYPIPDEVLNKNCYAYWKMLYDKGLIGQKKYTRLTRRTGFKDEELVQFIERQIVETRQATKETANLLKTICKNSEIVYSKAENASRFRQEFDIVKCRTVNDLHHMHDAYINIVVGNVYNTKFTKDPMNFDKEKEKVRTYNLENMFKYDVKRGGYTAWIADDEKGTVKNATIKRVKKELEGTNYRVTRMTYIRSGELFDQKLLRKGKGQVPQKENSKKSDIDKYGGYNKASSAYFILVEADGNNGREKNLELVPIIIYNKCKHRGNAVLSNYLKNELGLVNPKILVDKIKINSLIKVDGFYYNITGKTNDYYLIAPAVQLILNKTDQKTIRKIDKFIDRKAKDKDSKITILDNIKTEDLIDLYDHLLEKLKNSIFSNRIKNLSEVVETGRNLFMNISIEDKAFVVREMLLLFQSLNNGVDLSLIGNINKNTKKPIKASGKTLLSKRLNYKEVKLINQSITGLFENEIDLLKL
Conditions: TXTL; PAM NRRAAA.

In turn, “GGAAGAGCAGAGCCUUGGUCUCGUUUGAGAGCUUUGGAAACAAAGCGAGUGCAAAUAAGGUUUUACCGGAAUCGUCUUUAUUAAGAACCGCAUGGUGCGGAUUAUUUAGAAGCCAUUUAGAUGGCUUCUAUUUU / GGAAGAGCAGAGCCTTGGTCTCNNNNNNNN / NNNNNNNNGAGACCAAGGCTCTGCTCTTCC [OMNI-52 T2 sgRNA V1 ; pbPOS T2 protospacer 8N PAM library]” returned an activity (1-depletion score) in series [1] of 1.
In the case of “GGAAGAGCAGAGCCUUGGUCUCGUUGCGGCUUGACCGCGAAAGCGGUCUGGCUGUUAACAAGCUAGAUAUGCACCAAAUAAGACAGCUCCUCCGGGGGCUGUUUUUU / GGAAGAGCAGAGCCTTGGTCTCNNNNNNNN / NNNNNNNNGAGACCAAGGCTCTGCTCTTCC [OMNI-35 T2 sgRNA V1 ; pbPOS T2 protospacer 8N PAM library]”, in series [2], the activity (1-depletion score) turned out to be 0.97.
In the case of “GGAAGAGCAGAGCCUUGGUCUCGUUGUGGUUUGAUGUAGAAAUACAUCUUACCACAAUAAGGCUAUAUGCCGAAGGUUUUCAACCUACCGUCUCCGCGUAUUCCGUGGAGACUUUUUU / GGAAGAGCAGAGCCTTGGTCTCNNNNNNNN / NNNNNNNNGAGACCAAGGCTCTGCTCTTCC [OMNI-34 T2 sgRNA V1 ; pbPOS T2 protospacer 8N PAM library]”, the activity (1-depletion score) in series [3] was 0.82.
With “GGAAGAGCAGAGCCUUGGUCUCGUUUGAGAGUUAUGGAAACAUGACAGAGUUCAAAUAAAAAUUUAUUCAAACCGCCUAUUUAAUUAUAGGCCGCAGAUGUUCUGCACUAUGCUUGCAAGGUUGCAAGCUUUUUU / GGAAGAGCAGAGCCTTGGTCTCNNNNNNNN / NNNNNNNNGAGACCAAGGCTCTGCTCTTCC [OMNI-51 T2 sgRNA V1 ; pbPOS T2 protospacer 8N PAM library]”, in series [4], the activity (1-depletion score) turned out to be 1.
